Molecular target: the molecule itself
Assay: AUC + other: small-angle X-ray scattering (AUC-SAS); sedimentation velocity AUC (45 000 r/min, interference optics) and laboratory SAXS, 298 K; 2.0 mg/ml in 100 mM Tris-HCl pH 7.5, 100 mM NaCl; the derived profile of the main component was compared with the structure of the 24-mer and with SEC-SAXS

B1: apoferritin (natural protein)
chain: SSQIRQNYSTEVEAAVNRLVNLYLRASYTYLSLGFYFDRDDVALEGVCHFFRELAEEKREGAERLLKMQNQRGGRALFQDLQKPSQDEWGTTLDAMKAAIVLEKSLNQALLDLHALGSAQADPHLCDFLESHFLDEEVKLIKKMGDHLTNIQRLVGSQAGLGEYLFERLTLKHD
notes: apoferritin; it uses PDB 4v1w as the structure of this protein; PDB 4v1w is horse spleen apoferritin (light chain); also called AF; AF5; source: bought: Merck, Sigma-Aldrich; purified by SEC (Superose 6 Increase 10/300 GL); copies: 24
  stoichiometry N: 24

— publication PMC10241049, “Derivation of the small-angle scattering profile of a target biomacromolecule from a profile deteriorated by aggregates. AUC–SAS” (Journal of Applied Crystallography, 2023)
